According to the DeepSol protein solubility set:

Experiment: soluble on expression in E. coli; label from the status in PepcDB or PDB records

MSLHQILVVDDDAVSQQFLVMVLQRLGYANVVVASDGLDALIQLDAGDRRFDVIFCDLDMPRMDGIEFVRHLGERAFQGKLLISSGFDERVLESVAELARMYDLWLAGVLPKPINHQALQRLINQAPPASRHPTHAVAPPTEDELRAAIGKGEIRPFLQPQVLLADGRIRSAEVLARWQHPRLGLIGPQQFIQLAEHSSLITELTLQLLKQAAASMDRLPSETPMEMSLNLSVASLNEIALVSQFERILNDCGFPFSRLTVEVTETGLMANPTRALELLTRLRLKGARLAIDDFGTGFASMDRLSRIPFTELKIDKSFVIDAARNPTNLSIVRASAELGRQLGLVVVAEGVATESEWRLCQQLDVEIVQGSFISPPVDAESFRRWLLKHRGEGHHHHHH
soluble on expression in E. coli: soluble

MGSDKIHHHHHHMVFPISLEGYHLEEVVIIGGGVAGLSCLNALLDQGISALLIEGSTIGTPKMCGEFLAPIAAQQLQLWDVDPLIPIPHAAFYAGIRQLDIHFTKPSAAISRSDVELKLAARARRLGGRIRENTYLEYTTPATERTPFYFKLSTGEIIEAKSAFFATGKLSNNKDNKKIALPYFGFKLHFSHTENDHSLKMFSLDKAYLGIVPITETISNCACLAKREAVDAATSPEEHFRHLTQSHPVLKKIFTPLDLSAIDILSGRAPAFTQKKPPNWPNSYWIGDTLASLYPAIGSGFAHSVDSAIQAVQSYLKQQPKLYRINYSKSIKTKVLLGNVFNAALLQPKVGQLALPLLKRSPKLVNLVLKKLDYV
soluble on expression in E. coli: not soluble

GMTTTQPEAKDRISSLPVPDATQVPEGVRKLWAKAEANIGFVPNVFRAQAVNGEQFLAWWNYFNLLLNKEGYLTNAERELVAVVVSGVNRCLYCAVSHGAALREFLGDPQKADAVAVNWRHADLTEREQALAAYAEKLTRHPAEVTAADLEPLRAVGLDDHQIMELVQVIGMFNLTNRVSSALGFVPNPEYYRQAR
soluble on expression in E. coli: soluble

MREVKLVTFDVWNTLLDLNIMLDEFSHQLAKISGLHIKDVANAVIEVRNEIKKMRAQASEDPRKVLTGSQEALAGKLKVDVELVKRATARAILNVDESLVLEGTKEALQFVKERGLKTAVIGNVMFWPGSYTRLLLERFGLMEFIDKTFFADEVLSYKPRKEMFEKVLNSFEVKPEESLHIGDTYAEDYQGARKVGMWAVWINQEGDKVRKLEERGFEIPSIANLKDVIELISKT
soluble on expression in E. coli: soluble

MGSSHHHHHHGSPIHDKSPRPQEFAAVDLGSNSFHMVIARVVDGAMQIIGRLKQRVHLADGLGPDNMLSEEAMTRGLNCLSLFAERLQGFSPASVCIVGTHTLRQALNATDFLKRAEKVIPYPIEIISGNEEARLIFMGVEHTQPEKGRKLVIDIGGGSTELVIGENFEPILVESRRMGCVSFAQLYFPGGVINKENFQRARMAAAQKLETLTWQFRIQGWNVAMGASGTIKAAHEVLMEMGEKDGIITPERLEKLVKEVLRHRNFASLSLPGLSEERKTVFVPGLAILCGVFDALAIRELRLSDGALREGVLYEMEGRFRHQDVRSRTASSLANQYHIDSEQARRVLDTTMQMYEQWREQQPKLAHPQLEALLRWAAMLHEVGLNINHSGLHRHSAYILQNSDLPGFNQEQQLMMATLVRYHRKAIKLDDLPRFTLFKKKQFLPLIQLLRLGVLLNNQRQATTTPPTLTLITDDSHWTLRFPHDWFSQNALVLLDLEKEQEYWEGVAGWRLKIEEESTPEIAA
soluble on expression in E. coli: soluble

LSGSIYVLGGGENLKVTMMDAALKYAEANIPVIPLHWICEDGSCSCKTRSDCDSKGKHSLYTGWYNNSTTDVEQIRKWWTNVNVNKNLVLSKVS
soluble on expression in E. coli: not soluble

GSHMTNDIYFMTLAIEEAKKAAQLGEVPIGAIITKDDEVIARAHNLRETLQQPTAHAEHIAIERAAKVLGSWRLEGCTLYVTLEPCVMCAGTIVMSRIPRVVYGADDPKGGCSGSLMNLLQQSNFNHRAIVDKGVLKEACSTLLTTFFKNLRANKKSTN
soluble on expression in E. coli: soluble

MGSDKIHHHHHHMQFERISTEQKKLSLIQTFLHQNALKLDEQIEYFVVGYNDNEQIVVCGGLAGNIIKCVAIDESLRGSGVALQLITELVDLAYTLKRPHLFIYTKPEYATLFKSCGFYIISDANPYVVLLENSATRLQKQCSLWEKMRVDGNRIGSIVMNANPFTLGHRYLIEQALQQCDHLHLFIVGEDASQFSYTERFEMIQQGIFDLSNITLHSGSDYIISRATFPNYFLKDQLITDESYFEIDLKLFRLHIAQALGITHRFVGTELNCPVTAEYNRQMHYWLMDAEMNAPKINVIEIPRKTASNHIISASTVRKHLAEKNWAQLAEFVPMTTLNYLQKCGRF
soluble on expression in E. coli: not soluble

MGKPTGFMEIKREKPAERDPLTRLKDWKEYSAPFSEEASKRQGARCMDCGTPFCQIGADINGFTSGCPIYNLIPEWNDLVYRGRWKEALERLLKTNNFPEFTGRVCPAPCEGSCTLAISDPAVSIKNIERTIIDKGFENGWIQPRIPKKRTGKKVAIVGSGPAGLASADQLNQAGHSVTVFERADRAGGLLTYGIPNMKLEKGIVERRIKLLTQEGIDFVTNTEIGVDITADELKEQFDAVILCTGAQKQRDLLIEGRDSKGVHYAMDYLTLATKSYLDSNFKDKQFIDAKGKDVIVIGGGDTGADCVATALRQKAKSVHQFGKHPKLPPARTNDNMWPEQPHVFTLEYAYEEREAKFGRDPREYSIQTTKMVADKNGKLKELHTIQMEKVKNEHGKYEFRELPGTEKVWPAQLVFIAIGFEGTEQPLLKQFGVNSVNNKISAAYGDYQTNIDGVFAAGDARRGQSLIVWAINEGREVAREVDRYLMGSSVLPLEHHHHHH
soluble on expression in E. coli: soluble

MKDFVKGRKIYTRTYNKCDPSLVVVERAKRRLGETKYNPFYNNCEHFARYCKVGIPISDQVENYKSLVGNSGIDASDALLNNGKSIVDTTQNLMKTTLDKISNFWKNDNDDDDGFFEYYLEHHHHHH
soluble on expression in E. coli: not soluble

MGSDKIHHHHHHMNFLVRNLVENLEEGDRVILDVTHSFRSIPLMASVVALYLKEAKDVNVSVVYGKYNKETKVTECEDLTPLTKATSWIYAVRLFKEYGYAKELADLIKKRNEEIYRRSQSSKKPKLLGSMSQKLQDLSSSIRLGSIVAIRKNLTNFFNFIDRNKARIREETEVFVPEIAALLDGIEKRYRVIHVKSENFELSEKELESEKELLDFYLQTGDLGMALRLAREYLINVYLMSGGEKSDFLDRNVRESVSISTFGYDTILQARNHVAHFGFNKLQLPSLKKIEDHLKVLVQTPPEQLLESARKTQRNRKRALLTPLGTTKGALYTVLKKISPDLLLVITSKQGKAILSEILEKAEFKGEFRVILLEDPFMGVSEIDRVVSEIKEHLSDVDEVIVNLTGGTTFLTYVIERAKNQIRYGRKVKTILAVDKRTYEEQKQNPFVVGEILELD
soluble on expression in E. coli: not soluble

MAQGLIEVERKFAPGPDTEERLQELGATLEHRVTFRDTYYDTSELSLMLSDHWLRQREGSGWELKCPGVTGVSGPHNEYVEVTSEAAIVAQLFELLGSGEQKPAGVAAVLGSLKLQEVASFITTRSSWKLALSGAHGQEPQLTIDLDSADFGYAVGEVEAMVHEKAEVPAALEKIITVSSMLGVPAQEEAPAKLMVYLQRFRPLDYQRLLEAASSGEATGDSAS
soluble on expression in E. coli: soluble

PARLSTADKYTENPVSGVMAQLYSARSKNSWGMGDFNDLGLLAETLAPQADYLLINPLHAAEPMPPVEDSPYLPTTRRFINPIYIRIEDIPEHLLLDDDLQNDIAELAEKFTALNLTPEKIERNPIFDAKLQVLHAVFNVEREPAREQDFQDFIATEGQGLRDFASWCADQELAVLESSAAHAALPEKESLIQFYMWQQWICDQQLGAAQTRATD
soluble on expression in E. coli: not soluble

MSLDVSEGGVTVSVPTASGGGEGAADDVFFNATQELNRDLTVATLAAFREREPRAASYLDAMTASGIRGVRAANAGWDVTMADVDADAVELATSNLARNGLDGEVVARDANSLLHDHDRVLDVVDIDPFGSPMPFADAAFANARNLVCVTATDTAPLCGAHFESGVRKYSATPRNTNYHAEMGLRILLGALARTAARYDVGVTPILSHVSDHYVRTYLELDHRATDANAAVEQVGHVYHCQQCLSRDHEYGLVAAPRAECPRCGGHQVLTAGPLWLGPAHEEAFAASVREQLTREMGEASQAFHLLQTIEGELHEPTHYDQHRLYSQWGEPAVGMAEFLDQLRDAGLRASRTHFGGTTFKTDGGLAEVEAAVLEGHHHHHH
soluble on expression in E. coli: not soluble

MGSDKIHHHHHHMRYAFWNNKGGTGKTSLAFQSICRFAELNPHARILAIDVCPQANLSELMLGGLTNQGSARLMQRQGQVPRCSIGGYFQLRLPAPYTRPAFTASDFITTPNQYNPLIPGNIDLVCGDPLLELQANAVNTLANAQIPGTNTWIAVIDWISDFLESAEGYDYVFFDANPSFSIYTQIALSATNRVILPVMADDSSRRAIQNAFSLIYGLRLPSPIYATYNFATKLREAERPLPQVHLIPKNRLTQYMGPASAFYAVLAAIDQDVAGLLVQRPDLFTFADVADGVVDVRDFQTTGVVSYAKGAPFSQLRTGRLDIGGHRVRVDADMRQNCIDAIDGLVDRIE
soluble on expression in E. coli: not soluble

MNGAIFPWREDSRFQLLIDGPAFFPRMIAAIDRAEQQVDLELYLVEAGACADAVVRALVEAGRRGVIVRCLFDDFGSKAFDAGLRKQLTDAGVILRFYNPIHWRRGVRNFYRDHRKILVVDKALAVVGGTGVTDEFWEPDKDVSQWHEVMVEIAGPLVLDWQALFDRQFHANARRFAWRPKQNFGLDHLPKAPVTGEGLGRVAYADSRQHRDILQSLVRTLHSGQKRIWLATPYFLPTWKVRRALRSAAARGVDVRLLLTGPRTDHPSVRYAGHRYYPRLLRAGVKVFEYQPCFLHLKMVLIDDWVSIGSCNFDHWNLHFNLEANLEAHDPGLTRDVAASFEKDFALSTEITLEDWKARPLWRRVKQRLWGWIDRLVVNLLDQRN
soluble on expression in E. coli: not soluble

MHHHHHHSSGVDLGTENLYFQSMTTSLEALPTGTVLTDKSGRQWKLKSFQTRDNQGILYEAAPTSTLTCDSGPQKQKFSLKLDAKDGRLFNEQNFFQRAAKPLQVNKWKKLYSTPLLAIPTCMGFGVHQDKYRFLVLPSLGRSLQSALDVSPKHVLSERSVLQVACRLLDALEFLHENEYVHGNVTAENIFVDPEDQSQVTLAGYGFAFRYCPSGKHVAYVEGSRSPHEGDLEFISMDLHKGCGPSRRSDLQSLGYCMLKWLYGFLPWTNCLPNTEDIMKQKQKFVDKPGPFVGPCGHWIRPSETLQKYLKVVMALTYEEKPPYAMLRNNLEALLQDLRVSPYDPIGLPMVP
soluble on expression in E. coli: soluble

MSTQNEESEESARRPQSISHLARVEVEEPARKMRLMFGEKQVVFIRSDGLRSRVVRENMKKKLSQEIEKKEDLDTDSPNLTKVIDDVASGATGSSSLPSSSTESYSTSSSSSSSSSDLNSAYSSTSEPQATSSSAPESSTNSSASPEIKGNRNYHPPREFHGASTMVSHKRRWTYQTACDINAAEQSGDSEMYYIAHPLLPMPRGSGRNEVSTATRMNYAGQQIDNRKFRGQSKAVNQFANTESVTCEKCGMRYFFESIQMQERISYLLPPNEEDLPIALFECPVCKITTKVK
soluble on expression in E. coli: not soluble

MTRACNLYVFKNKYVSFNLLDSPNSNPKLLKISLPFNFMDEFEGLLKAVGSAPWYKLIGMVPKLQGDRVVVEMEIDRSKHLQALGTTHGGAIASVLDSAIGLNVNREVVKMGKTAVTAQLNIHYIRPVTEGKIVGVGMPMHIGSKVTVGYGEVRNEEGELVAAGTATFYIIDRRFRD
soluble on expression in E. coli: soluble

MGHHHHHHSHMARATTKQDLIMASNGQFEKLWVLIDGMSDDLQNATFADQMATAGKEAHWGRDKNLRDVLVHLYEWHQLLLNWINSNSKGERKPFLPEPYNWKTYSVMNVEFWKKHQQTPLAEAKDKLKESHRQVMALIETFSNDELFAKGVFDWTDTSTLGAYCVSATSSHYDWAMKKIKLHIKTGK
soluble on expression in E. coli: soluble
